Experimental data reported in article PMC8509707.

Molecular target: Recombinant His-tagged C-terminal ^ECFTO domain (CD-FTO) (human)
Experiment: SEC; ^BTCaM (7.6 µM) and/or CD-FTO (15.2 µM), 10 min at 4 °C, SEC650 column in SEC1 buffer (50 mM MES pH 6.5, 150 mM NaCl, 10% glycerol, 1 mM 2-OG, 0.5 mM MnCl2, 0.5 mM CaCl2)

stoichiometry N: 2
Substance: Recombinant His-tagged C-terminal ^ECFTO domain (CD-FTO) (domain or fragment)
